Measured values from the supplement of paper PMC10126150.
± gives the standard deviation of the averaged measurements.

system: ATP; assay: switch fluorescence ratio, 500 uM ATP over buffer (Cy3 cluster intensity, sum of 5 cycles each) (fold (ratio)); higher = stronger signal-on switching upon ATP binding; sequences stand for … in TCGTCGGCAGCGTCAGATGTGTATAAGAGACAGTTTTTTTTTTTTTTTTTTTTTTTTT…TC; settings: aptamer strand: ATP DNA aptamer (quencher-CACCTGGGGGAGTATTGCGGAGGAAGG + anchor), 100 nM annealed; ATP concentration: 500 uM
Procedure, shortened: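 Cy3-labelled switching-strand clusters on a modified Illumina MiSeq flow-cell were annealed to 100 nM quencher-labelled ATP aptamer and imaged first in selection buffer, then after 15 min with 500 uM ATP at 22 °C. NaOH stripping and re-annealing separated each of five buffer/ATP cycles, and clusters outside 100-1000 RFU were excluded. The fluorescence ratio sums target-cycle Cy3 intensity over buffer-cycle Cy3 intensity per cluster and averages it per switch-domain sequence.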
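Note: ATP exposure 15 min at 22 °C before imaging.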

| Sequence | switch fluorescence ratio |
| --- | --- |
| CACAGGGGGA | 2.67 ± 1.3 |
| CACAGGTGCG | 2.23 ± 0.08 |
| CACAGTGAAG | 0.985 ± 0.051 |
| CACAGTGTCA | 1.01 ± 0.027 |
| CACATGTAGC | 1.02 ± 0.041 |
| CACCATAGTG | 1.03 ± 0.02 |
| CACCATTAAT | 1.01 ± 0.017 |
| CACCCGGCGC | 1.17 ± 0.13 |
| CACCCGGGGT | 1.2099 ± 0.00019 |
| CACCCTACTA | 1.29 ± 0.018 |
| CACCGAGTTT | 0.987 ± 0.02 |
| CACCGGAAAA | 1.09 ± 0.094 |
| CACCGGAAGG | 1.02 ± 0.024 |
| CACCGGGAAC | 1.56 ± 0.037 |
| CACCGGTTGG | 1.014 ± 0.0044 |
| CACCTTTATT | 1.018 ± 0.0096 |
| CACGAGAAGG | 1.03 ± 0.018 |
| CACGATTTGG | 0.995 ± 0.014 |
| CACGCATCAG | 1.137 ± 0.011 |
| CACGCGAGGA | 1.12 ± 0.12 |
| CACGCGTGGT | 0.996 ± 0.019 |
| CACGGAGGAG | 1.05 ± 0.055 |
| CACGGATTGC | 1.18 ± 0.039 |
| CACGGGGCGC | 0.977 ± 0.046 |
| CACGGGGGTG | 0.987 ± 0.03 |

| Sequence | switch fluorescence ratio |
| --- | --- |
| CACGGGGGTT | 1 ± 0.018 |
| CACGGGGTAC | 1.34 ± 0.016 |
| CACGGGGTCG | 1.036 ± 0.0027 |
| CACGTACTCC | 1.5 ± 0.097 |
| CACGTATCGG | 1.07 ± 0.029 |
| CACGTGATTG | 1.02 ± 0.02 |
| CACGTGTGTG | 0.961 ± 0.029 |
| CACGTGTTGC | 1.04 ± 0.03 |
| CACGTTTGGG | 1.01 ± 0.027 |
| CACTAACCCT | 1.148 ± 0.0044 |
| CACTAATGAG | 1.0254 ± 0.00028 |
| CACTACGACT | 1.084 ± 0.0034 |
| CACTACGGCC | 1.04 ± 0.043 |
| CACTAGAAGC | 1.037 ± 0.0012 |
| CACTAGGCTT | 1 ± 0.045 |
| CACTAGTAGA | 1.03 ± 0.028 |
| CACTAGTGGG | 1 ± 0.0024 |
| CACTATGGTG | 1.05 ± 0.066 |
| CACTCATACT | 1.16 ± 0.029 |
| CACTCCCGGA | 1.15 ± 0.16 |
| CACTGAGCTG | 1.07 ± 0.077 |
| CACTGATGCC | 1.04 ± 0.019 |
| CACTGTAACG | 1.194 ± 0.0063 |
| CACTTCCTTT | 1.39 ± 0.51 |
| CACTTCTGAA | 0.987 ± 0.017 |

| Sequence | switch fluorescence ratio |
| --- | --- |
| CACTTCTTAT | 0.973 ± 0.021 |
| CACTTGACGT | 1.21 ± 0.034 |
| CACTTGGAAG | 1 ± 0.028 |
| CACTTTGGAT | 0.9914 ± 0.0032 |
| CAGAAAGAGC | 0.969 ± 0.0086 |
| CAGAAAGATA | 0.997 ± 0.018 |
| CAGAAGGATA | 1.03 ± 0.013 |
| CAGAATTGGG | 0.967 ± 0.028 |
| CAGACCCCAT | 1.06 ± 0.035 |
| CAGACGTTTT | 0.9917 ± 0.0094 |
| CAGACTCGGT | 1.02 ± 0.024 |
| CAGACTGGTT | 1.011 ± 0.0067 |
| CAGAGAAAC | 1.1 ± 0.12 |
| CAGAGGAGGT | 0.982 ± 0.017 |
| CAGAGGATAG | 1.017 ± 0.0088 |
| CAGAGGATAT | 1.021 ± 0.01 |
| CAGAGGGCTA | 1.03 ± 0.038 |
| CAGAGGGGCG | 1.04 ± 0.043 |
| CAGAGGGGGG | 0.994 ± 0.019 |
| CAGAGGGGTC | 0.999 ± 0.022 |
| CAGAGGTGCG | 0.969 ± 0.056 |
| CAGAGTAAGC | 1.01 ± 0.021 |
| CAGAGTAATA | 1.45 ± 0.1 |
| CAGATAAAAA | 1.03 ± 0.02 |
| CAGATAATAT | 1.04 ± 0.022 |

| Sequence | switch fluorescence ratio |
| --- | --- |
| CAGATAGGCT | 1.04 ± 0.019 |
| CAGATAGTGT | 1.018 ± 0.002 |
| CAGATGATAT | 0.992 ± 0.047 |
| CAGATTAAGT | 0.992 ± 0.03 |
| CAGATTTTTT | 0.982 ± 0.028 |
| CAGCAGGGAG | 1.1 ± 0.096 |
| CAGCATGGGG | 1.03 ± 0.017 |
| CAGCCAAATA | 1.1 ± 0.029 |
| CAGCCGCTGT | 1.79 ± 0.026 |
| CAGCCGTTTC | 1.03 ± 0.033 |
| CAGCCTTGGT | 1.04 ± 0.11 |
| CAGCGAGGAA | 1.014 ± 0.0091 |
| CAGCGCCGTT | 1.006 ± 0.004 |
| CAGCGCGGGA | 0.999 ± 0.014 |
| CAGCGGAGGT | 1.025 ± 0.0052 |
| CAGCGGTGGG | 1.02 ± 0.029 |
| CAGCGTATCA | 1.01 ± 0.0018 |
| CAGCTAGTGG | 1.011 ± 0.0011 |
| CAGCTCTGGG | 1 ± 0.022 |
| CAGCTGTCGG | 1.1 ± 0.12 |
| CAGCTTGATA | 0.979 ± 0.018 |
| CAGGAACCGA | 1.14 ± 0.017 |
| CAGGAACTGT | 0.985 ± 0.018 |
| CAGGAACTTG | 0.956 ± 0.023 |
| CAGGAAGGAT | 0.994 ± 0.016 |

| Sequence | switch fluorescence ratio |
| --- | --- |
| CAGGAATATA | 1.014 ± 0.0049 |
| CAGGACCTCG | 1.03 ± 0.024 |
| CAGGAGAAGG | 1.05 ± 0.022 |
| CAGGAGACGA | 1.03 ± 0.025 |
| CAGGAGCTGT | 1.2 ± 0.034 |
| CAGGATACGC | 1.21 ± 0.34 |
| CAGGATCATG | 1.11 ± 0.15 |
| CAGGATTTGG | 0.985 ± 0.013 |
| CAGGATTTTT | 0.993 ± 0.042 |
| CAGGCCTAGG | 0.946 ± 0.024 |
| CAGGCGACTG | 0.9706 ± 0.0041 |
| CAGGCGAGGG | 0.9905 ± 0.0078 |
| CAGGCGTGCA | 0.998 ± 0.018 |
| CAGGCTGGAC | 1.06 ± 0.046 |
| CAGGCTGTCG | 1.02 ± 0.036 |
| CAGGCTTTTT | 1 ± 0.029 |
| CAGGGAGCTT | 1.01 ± 0.03 |
| CAGGGAGGGA | 0.992 ± 0.02 |
| CAGGGATGTG | 1.03 ± 0.013 |
| CAGGGATTAA | 0.9842 ± 0.0036 |
| CAGGGATTTT | 0.98 ± 0.022 |
| CAGGGCGATA | 1.1 ± 0.033 |
| CAGGGCGGA | 0.993 ± 0.015 |
| CAGGGCGGGC | 0.84 ± 0.073 |
| CAGGGCTATT | 1.01 ± 0.037 |

| Sequence | switch fluorescence ratio |
| --- | --- |
| CAGGGGAGCG | 0.993 ± 0.037 |
| CAGGGGCCGG | 0.978 ± 0.018 |
| CAGGGGCGGA | 1.04 ± 0.03 |
| CAGGGGCGGG | 0.966 ± 0.11 |
| CAGGGGGAAT | 1.1 ± 0.11 |
| CAGGGGGGG | 1 ± 0.011 |
| CAGGGGGGGG | 1.01 ± 0.031 |
| CAGGGGGGGT | 1.03 ± 0.061 |
| CAGGGGTGCG | 0.991 ± 0.013 |
| CAGGGTACGC | 1.04 ± 0.016 |
| CAGGGTTAAT | 1.012 ± 0.0094 |
| CAGGGTTCGT | 0.9894 ± 0.0081 |
| CAGGGTTGGG | 1 ± 0.019 |
| CAGGGTTTGG | 1.01 ± 0.023 |
| CAGGGTTTTA | 1.006 ± 0.0055 |
| CAGGTCGACG | 1.05 ± 0.032 |
| CAGGTCGCTT | 1.01 ± 0.0019 |
| CAGGTCTTGA | 0.9888 ± 0.0014 |
| CAGGTGGGGT | 1.16 ± 0.08 |
| CAGGTTATAT | 1.03 ± 0.028 |
| CAGGTTTCGG | 0.987 ± 0.022 |
| CAGGTTTCGT | 0.989 ± 0.021 |
| CAGGTTTGGC | 0.9775 ± 0.002 |
| CAGGTTTTGG | 0.964 ± 0.034 |
| CAGTAAATGT | 0.984 ± 0.054 |

| Sequence | switch fluorescence ratio |
| --- | --- |
| CAGTAAGAAT | 0.9809 ± 0.0019 |
| CAGTAAGAGC | 0.935 ± 0.0095 |
| CAGTAATTAT | 0.997 ± 0.02 |
| CAGTAGGGTA | 1 ± 0.045 |
| CAGTATGCAC | 1.01 ± 0.047 |
| CAGTATGGGA | 0.999 ± 0.02 |
| CAGTCAGAGT | 0.985 ± 0.023 |
| CAGTCGTCGA | 1.001 ± 0.0033 |
| CAGTCTACGA | 1.03 ± 0.015 |
| CAGTCTTGC | 1.03 ± 0.021 |
| CAGTGAAAAA | 1.06 ± 0.089 |
| CAGTGAGGGA | 0.9804 ± 0.004 |
| CAGTGAGGGG | 0.984 ± 0.029 |
| CAGTGATCTT | 0.97521 ± 0.00076 |
| CAGTGCGCGC | 1.01 ± 0.026 |
| CAGTGGAGGA | 1 ± 0.024 |
| CAGTGGGGGA | 0.993 ± 0.022 |
| CAGTGGGGGT | 1 ± 0.03 |
| CAGTGGGTCT | 0.992 ± 0.017 |
| CAGTGTCCGC | 1.07 ± 0.018 |
| CAGTTAGCAG | 1.06 ± 0.025 |
| CAGTTATTCG | 0.977 ± 0.014 |
| CAGTTATTGG | 0.978 ± 0.038 |
| CAGTTCCCGC | 1.16 ± 0.055 |
| CAGTTCGGGG | 0.9729 ± 0.0094 |

| Sequence | switch fluorescence ratio |
| --- | --- |
| CAGTTCTCTA | 0.981 ± 0.0068 |
| CAGTTGAGGT | 0.998 ± 0.013 |
| CAGTTGGGGG | 1 ± 0.031 |
| CAGTTTACGT | 0.983 ± 0.023 |
| CAGTTTATGA | 0.971 ± 0.039 |
| CAGTTTGCTG | 0.979 ± 0.018 |
| CAGTTTGGGT | 1.01 ± 0.081 |
| CATAAGGCAA | 1.282 ± 0.0088 |
| CATAAGGTTT | 0.971 ± 0.04 |
| CATAATAATC | 0.98 ± 0.026 |
| CATAATGAAG | 1.01 ± 0.014 |
| CATAATGCGG | 1.005 ± 0.0012 |
| CATAATTAAT | 0.955 ± 0.023 |
| CATACTCTTC | 1 ± 0.065 |
| CATAGCATCC | 1.48 ± 0.2 |
| CATAGCTAGG | 1.004 ± 0.0075 |
| CATAGCTGTG | 1.01 ± 0.026 |
| CATAGGAGGC | 1 ± 0.031 |
| CATAGGCTGG | 0.985 ± 0.016 |
| CATAGGGACG | 0.989 ± 0.083 |
| CATAGGGCCA | 1 ± 0.012 |
| CATAGGGGAA | 1.01 ± 0.011 |
| CATAGGTCAT | 1.03 ± 0.058 |
| CATAGTATGT | 0.973 ± 0.067 |
| CATAGTATTA | 0.958 ± 0.04 |
